From US20150284437A1 (Harvard, published 2015) come the findings set out here.

For this test, the target named is T1, N-terminally GST-tagged human β-catenin (human, UniProt P35222 1-781, limits assumed).
T1 construct: not shown: N-terminal GST tag
T1 sequence (looked up): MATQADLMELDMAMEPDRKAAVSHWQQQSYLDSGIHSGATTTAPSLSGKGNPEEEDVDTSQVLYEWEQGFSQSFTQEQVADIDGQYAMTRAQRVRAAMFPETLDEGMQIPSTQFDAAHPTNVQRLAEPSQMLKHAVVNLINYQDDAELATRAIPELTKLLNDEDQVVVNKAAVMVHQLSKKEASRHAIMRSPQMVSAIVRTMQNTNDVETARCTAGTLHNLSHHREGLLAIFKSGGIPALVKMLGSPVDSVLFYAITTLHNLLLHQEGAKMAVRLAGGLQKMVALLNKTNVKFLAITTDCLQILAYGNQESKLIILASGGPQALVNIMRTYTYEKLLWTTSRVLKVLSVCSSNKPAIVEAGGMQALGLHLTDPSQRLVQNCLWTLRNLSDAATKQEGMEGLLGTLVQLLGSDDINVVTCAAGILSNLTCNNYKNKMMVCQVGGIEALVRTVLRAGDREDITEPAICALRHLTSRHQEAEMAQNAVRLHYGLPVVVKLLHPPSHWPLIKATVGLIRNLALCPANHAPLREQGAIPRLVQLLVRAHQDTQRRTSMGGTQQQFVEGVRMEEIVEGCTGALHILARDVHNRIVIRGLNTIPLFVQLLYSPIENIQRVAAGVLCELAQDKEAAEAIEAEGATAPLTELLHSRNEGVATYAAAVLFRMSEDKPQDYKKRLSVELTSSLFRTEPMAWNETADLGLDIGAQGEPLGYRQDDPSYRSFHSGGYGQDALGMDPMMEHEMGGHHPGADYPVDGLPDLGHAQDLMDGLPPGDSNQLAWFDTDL
As to the kind of experiment: fluorescence polarization; FITC-labeled peptide, GST-tagged human β-catenin. The protocol: Peptide sequences derived from TCF4 and Axin were synthesized and fluorescently labeled (FIG. 4b) and the affinity of both binding domains to β-catenin was assessed. The sequence of TCF4 was modified in such a way that the loop (9 amino acids; not visible in the crystal structure) between the extended region and the α-helix was replaced by two β-alanines (βAla). Labeled peptides and GST-tagged human β-catenin were used in a fluorescence polarization assay enabling the determination of the stability of these peptide/β-catenin complexes (FIG. 4c). […] Therefore, the Axin derivative was considered to be the most promising candidate for the hydrocarbon stapling approach.

Non-standard residues stand in square brackets, D forms with d. No end group written: not given here. βAla = NCCC(=O)O

B1: TCF4 derived peptide, fluorescently labeled (peptide, UniProt Q9NQB0 10-53, looked up)
peptide: DELISFKDEGEQE[βAla][βAla]ERDLADVKSSLVN
modifications: also: FITC label, place not given here
notes: A synthetic fragment, not the whole protein
B1: the Kd was 300 nM.

B2: Axin wild type sequence peptide ax-WT, fluorescently labeled (peptide)
peptide: ENPESILDEHVQRVM
modifications: also: FITC label, site not given here
notes: also called axin-WT; Axin derived peptide
For the molecule B2, the Kd was approximately 5000 nM.
